How the values were obtained:
[1] = molecular target: T1, human LILRB2 on CHOK1 cells (human, UniProt Q8N423 22-597); test: FACS binding, CHOK1-hLILRB2 cells
T1 construct: whole, on cells; also called CHOK1-hLILRB2; CHOK1-LILRB2

[2] = molecular target: T2, human LILRB1 on CHOK1 cells (human, UniProt Q8NHL6 24-650); test: FACS binding, CHOK1-hLILRB1 cells
T2 construct: whole, on cells; also called CHOK1-hLILRB1; CHOK1-LILRB1

[3] = molecular target: T2, human LILRB1 on CHOK1 cells; test: cell-based RBA (FACS): blocking of HLA-G binding to CHOK1-hLILRB1 cells

T1 sequence (Q8N423 22-597): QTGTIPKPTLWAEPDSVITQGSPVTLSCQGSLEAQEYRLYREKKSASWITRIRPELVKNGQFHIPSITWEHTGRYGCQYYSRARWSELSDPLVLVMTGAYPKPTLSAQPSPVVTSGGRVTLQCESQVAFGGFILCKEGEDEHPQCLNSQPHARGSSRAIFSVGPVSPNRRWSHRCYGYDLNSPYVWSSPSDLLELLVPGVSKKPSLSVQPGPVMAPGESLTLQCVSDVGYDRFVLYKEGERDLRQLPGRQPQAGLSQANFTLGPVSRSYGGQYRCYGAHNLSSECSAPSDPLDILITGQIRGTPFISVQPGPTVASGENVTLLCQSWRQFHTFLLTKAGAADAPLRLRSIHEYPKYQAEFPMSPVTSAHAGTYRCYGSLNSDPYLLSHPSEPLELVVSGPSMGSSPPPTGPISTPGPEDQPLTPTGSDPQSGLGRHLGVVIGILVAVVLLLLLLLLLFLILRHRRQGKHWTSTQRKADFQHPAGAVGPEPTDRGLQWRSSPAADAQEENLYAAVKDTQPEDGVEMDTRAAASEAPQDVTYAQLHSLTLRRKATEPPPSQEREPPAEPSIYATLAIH
T2 sequence (Q8NHL6 24-650): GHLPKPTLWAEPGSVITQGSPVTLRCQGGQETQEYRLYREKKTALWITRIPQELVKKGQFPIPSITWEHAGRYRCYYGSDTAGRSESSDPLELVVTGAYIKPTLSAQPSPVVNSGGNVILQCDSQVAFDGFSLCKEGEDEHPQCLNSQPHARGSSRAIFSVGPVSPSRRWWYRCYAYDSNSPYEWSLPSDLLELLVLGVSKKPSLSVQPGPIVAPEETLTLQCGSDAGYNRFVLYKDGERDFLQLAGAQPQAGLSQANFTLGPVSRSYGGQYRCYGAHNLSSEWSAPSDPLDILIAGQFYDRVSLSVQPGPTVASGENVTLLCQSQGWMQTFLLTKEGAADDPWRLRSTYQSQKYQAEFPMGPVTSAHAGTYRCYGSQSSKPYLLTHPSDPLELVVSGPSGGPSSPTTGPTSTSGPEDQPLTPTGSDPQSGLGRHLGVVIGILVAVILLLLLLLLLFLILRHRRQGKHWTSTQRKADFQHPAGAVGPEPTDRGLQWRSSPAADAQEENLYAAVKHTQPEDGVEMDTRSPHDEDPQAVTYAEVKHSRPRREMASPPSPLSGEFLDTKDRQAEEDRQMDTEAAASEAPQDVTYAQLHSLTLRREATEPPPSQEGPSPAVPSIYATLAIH

binding result [1] | EC50 [2] [nM] | further results | Binder
no binding | 0.97 |  | LK-RB1-46 (antibody, human IgG4 S228P, kappa, V domains shown) VH: EVQLQQSGPELVKPGASVKISCKTSGYTFTDYYMNWVKQSHGKSLEWIGDIYPINGDISYNQKFKGKATLTVDKSSSTVYMEIRSLTYEDSAVYYCARLAQTTSGGFDYWGQGTTLTVSS VL: DIVLTQSPTSLAVSLGQRAIISCKASQSVSFAGTSLMHWYQQKPGQQPKLLIYRASNLKAGVPTRFSGSGSRTDFTLNIHPVEEDDAATYYCQQSREYPMYTFGGGTKLEIKR
 | 2.01 | EC50 [1]: 605 nM | LK-RB1-50 (antibody, human IgG4 S228P, kappa, V domains shown) VH: QVQLKQSGPGLVQPSQSLSITCTVSGFSLTSYGVHWVRQSPGKGLEWLGVIWRGGNTDYNAPFVSRLSITKDNSQSQVFFKMNSLEADDTAIYYCAKNSLDVYSSWYFDVWGTGTTVTVSS VL: QIVLSQSPAILSAFPGEKVTMTCRASSSVSFMHWYQQKPGSSPKPWIYATSNLASGVPARFSGSGSGTSYSLTISRVEAEDAATYYCQQWSSNPLTFGAGTKLELKR
no binding | 1.24 |  | LK-RB1-56 (antibody, human IgG4 S228P, kappa, V domains shown) VH: QVQLKQSGPGLVQPSQSLSITCSVSGFSLTNYGVHWVRQSPGKGLEWLGVIWRGGSTDNNAAFMSRLSITKDNSKSQVFFKMNSLQADDTAIYYCAKNSDFYGSSWYFDVWGTGTTVTVSS VL: QIVLSQSPAILSASPGEKVTMTCRASSSVSFMHWYQQKPGSSPKPWIYATSNLASGVPARFSGSGSGTSYSLTISRVEAEDAATYYCQQWSRNPPTFGAGTKLELKR
no binding | 5 |  | LK-RB1-58 (antibody, human IgG4 S228P, kappa, V domains shown) VH: QVQLKQSGPGLVQPSQSLSITCTVSGFSLTTYGVHWVRQSPGKGLEWLGVIWRGGSTDYNAAFMSRLSITKDNSKSQVFFRMNSLQADDTARYYCAKNSLYYGSSWYFDVWGTGTTVTVSS VL: QIVLSQSPAILSASPGEKVTMTCRASSSVSFMHWYQQKPGSSPKPWIYATSNLASGVPARFSGSGSGTSYSLTISRVEAEDAATYYCQQWSSNPPTFGGGTKLEIKR
no binding |  | binding result [2]: no binding | LK-RB1-40 (antibody, human IgG4 S228P, kappa, V domains shown) VH: DVQLQESGPGLVQPSQSLSLTCSVTGYSITSGYQWNWIRQLPGNKLEWMAYISFDGSNNYNPSLKNRISITRDTSKNQFFLKLKSVTTEDTATYYCARRDYDGVAYWGQGTLVTVSA VL: DVLMTQTPLSLPVSLGDQASISCRSSQSIVHSNGNTYLEWYLQKPGQSPKLLIYKVSNRFSGVPDRFSGSGSGTDFTLKISRVEAEDLGVYYCFQGSHVPWTFGGGTKLEIKR
no binding | 0.44 |  | LK-RB1-35 (antibody, human IgG4 S228P, kappa, V domains shown) VH: DVQLQESGPGLEKPSQSLSLTCSVTGYSITRGYQWNWIRQFPGNKLEWMGYISYDGSNNYNPSLKNRISITRDASKNQFFLKLNSVTTEDTATYYCARRSYNSIDYWGQGTTLTVSS VL: DIVLTQSPATLSVTPGDSVSLSCRASQSISSNLHWYQQKSHESPRLLIKYASQSISGIPSRFSGSGSGTDFTLSINSVETEDFGMYFCQQSNSWPLTFGAGTKLELKR
no binding | 2.45 |  | LK-RB1-38 (antibody, human IgG4 S228P, kappa, V domains shown) VH: DVQLQESGPGLVQPSQSLSLTCSVTGYSITSGYQWNWIRQLPGNKLEWMAYISFDGSNNYNPSLKNRISITRDTSKNQFFLKLKSVTTEDTATYYCARRDYDGVAYWGQGTLVTVSA VL: EIVLTQSPATLSVTPGDRVSLSCRASQNISNYLHWYQQKSHGSPRLIIKYASQSISGIPSRFSGSGSGTDFTLSINSVETEDFGMYFCQQSNSWPLTFGAGTKLELKR
no binding | 0.46 |  | LK-RB1-36 (antibody, human IgG4 S228P, kappa, V domains shown) VH: DVQLQESGPGLEKPSQSLSLTCSVTGYSITRGYQWNWIRQFPGNKLEWMGYISYDGSNNYNPSLKNRISIIRDTSKNQFFLKLNSVTTEDTATYYCARRSYNSIDYWGQGTTLTVSS VL: DIVLTQSPATLSVTPGDSVSLSCRASQSISNNLHWYQQKSHESPRLLIKYASQSISGIPSRFSGSGSGTDFTLSINSVETEDFGMYFCQQSNSWPLTFGAGTKLELKR
 | 5.53 | EC50 [1]: 47.4 nM | LK-RB1-17 (antibody, human IgG4 S228P, kappa, V domains shown) VH: QVQLQQPGAELVKPGASVKLSCEASGYTFTNYWIHWVKQRPGRGLEWIGRIAPNSGGTKYNEKFKTRATLTVDKASTTAYMQLSSLTSEDSAVYYCARLDGSPYYFDYWGQGTTLTVSS VL: DIVMTQSQKFMSTSIGDRVSVTCKASQNVDTNVAWYQQKPGQSPKALIYSASYRYSGIPDRFTGSGSGTDFTLTISNVQSEDLAEYFCQQYNSYPYTFGGGTKLEIKR
no binding | 2.79 |  | LK-RB1-44 (antibody, human IgG4 S228P, kappa, V domains shown) VH: QVQLQQSGTELAKPGASVKLSCKASGYTFTNYWMHWIKQRPGQGLEWIGYVHPTSDYTKYNQKFKDKATLTADKSSSTAYMQLNSLTYEDSAVYYCTRSSLYDTNYVFDSWGQGTTLTVSS VL: DILLTQSPAILSVSPGERVSFSCRASQSIGRSIHWFQQRTNGSPSLLIKYASESISGIPSRFSGGGSGTDFTLSISNVESEDIADYYCQQSNNWPFTFGSGTKLEIKR
no binding | 1.78 |  | LK-RB1-45 (antibody, human IgG4 S228P, kappa, V domains shown) VH: QVQLQQSGTELARPGASVKLSCKASGYTFTNFWMHWIKQRPGQGLEWIGYVNPTSDYTKYNQKFKDKATLTADKSSSTAYMQLNSLTYEDSAVYYCTRSSLYDTNYVFDSWGQGTTLTVSS VL: DILLTQSPAILSVSPGERVSFSCRASQSIGRSIHWYQQRTNGSPRLLIKYASESISGIPSRFSGGGSGTDFTLSISNVESEDIADYYCQQSNNWPFTFGSGTKLEIKR
no binding | 0.17 | EC50 [3]: 0.32 nM; Top Inhibition (%) [3]: 78% | LK-RB1-1 (antibody, human IgG4 S228P, kappa, V domains shown) VH: QIQLVQSGPELKKPGETVKISCKASGYSFTNFGMSWVKQAPGKALKWMGWINTYSGVPTYADDFKGRFAFSLETSANTAYLQINNLKNEDSATYFCARRRRTFDGYLCFDYWGQGATLTVSS VL: QLVLTQSSSASFSLGASAKLTCTLSSQHSTYSIDWYQQQPLKPPKYVMELKTDGSHRTGDGIPDRFSGSSSGADRYLSISNIQPEDEAIYICGVGDTIKEQFVYVFGGGTKVTVLR
no binding |  | binding result [2]: no binding | LK-RB1-51 (antibody, human IgG4 S228P, kappa, V domains shown) VH: QVQIQQSGAELVKPGASVKLSCKASGYTFTEFPIHWIKQRSGQGLEWIGWFYPGSDNMNYNEKFKDKATLTADKSSSTVYMELSRLTSEDSAVYFCARHENAYFYAMDYWGQGTSVTVSS VL: ENVLTQSPAIMSASLGEKVTMSCRASSSVNYMYWYQQKSDASPKIWIYYTSNLAPGVPARFSGSGSGNSYSLTISSMEGEDAATYYCQQFTSSPFTFGTGTKLEIKR
no binding |  |  | LK-RB1-54 (antibody, human IgG4 S228P, kappa, V domains shown) VH: DVQLQESGPGLVKPSQSLSLTCSVTGYSITSGFYWNWIRQFPGNKLEWMGHISYDGTNNYNPSLKNRISITRDTSKNLFFLKLNSVTTEDTATFHCARGGYGGSYGFDYWGQGTTLTVSS VL: ENVLTQSPAIMSASLGEKVTMSCRASSSVNYMYWYQQKSDASPKLWIYYTSNLAPGVPVRFSGSGSGNSYSLTISSMEGEDAATYYCQQFTSSPWTFGGGTKLEIKR
 | 1.33 | EC50 [1]: 5.72 nM | LK-RB1-28 (antibody, human IgG4 S228P, kappa, V domains shown) VH: QVQLQQSGPELVKPGTSVKMSCKASGYTFTSHYIHWMKQRPGQGLDWIGWIYPGDGHTKYHEKFKGKATLTADTSSITAYMQLSLLTSEDSAVYYCVYYSDSWFPYWGQGTLVTVSA VL: DIQMTQSPASLSVSVGETVTITCRASENIYSNLAWYQQKQGKSPQLLVYAATNLADGVPSRFSGSGSGTQYSLKINSLQSEDFGNYFCQHFWGSPWTFGGGTKLEIKR
no binding |  |  | LK-RB1-43 (antibody, human IgG4 S228P, kappa, V domains shown) VH: EFQLQQSGPELMKPGASVKISCKASGYSFTDYNMNWVKQSNGKSLEWIGIIDPNYGTTTYNQKFKGRATLTVDQSSNTAYMQLNSLTSEDSAVYYCAREGRYSWFAYWGQGTLVTVSA VL: DIQMTQSPGALSVSVGETVTITCRASENINSNLAWYQQKQGKSPQLLVYAATNLADGVPSRFSGSGSGTQYSLKINSLQSEDFGSYHCQHFWGTPFTFGSGTKLEIKR
no binding | 2.51 |  | LK-RB1-37 (antibody, human IgG4 S228P, kappa, V domains shown) VH: QVQLQQPGAELVKPGASVKLSCKASGYTFTSYWMHWVKQRPGRGPEWIGRIDPNSGYARYNEKFKNKATLTADKPSSTADMHLSSLTSEDSAVYYCTRSFITTAEWFFDVWGTGTTVTVSS VL: DILLTQSPAILSVSPGERVSFSCRASQSIGTSIHWYQQRRNGSPRLLIKYTSESISGIPSRFSGSGSGTDFTLSINSVESEDIADYYCQQSNSWPHTFGGGTKLELKR
no binding | 2.44 |  | LK-RB1-32 (antibody, human IgG4 S228P, kappa, V domains shown) VH: QVQLQQSGAELAKPGASVKLSCTASGYTFTTYLMHWVKQRPAQGLEWIGYINPSNDFTKYNQKFKDKATLTADTSSSTAYMQLNSLTFEDSAVYYCARNSDYDPSYWGQGTTLTVSS VL: DIQMTQSPASLSVSVGETVTITCRASENIYSSLAWYQQKQGKSPQLLVYAATNLADGVPSRFSGSGSGTQYSLKINSLQSEDFGNYYCQHFWGTWAFGGGTKLEIKR
no binding | 2.91 |  | LK-RB1-31 (antibody, human IgG4 S228P, kappa, V domains shown) VH: QVQLKESGPGLVAPSQSLSITCTVSGFSLTSYGVSWVRQPPGKGLEWLGIIWGDGSTNYHSALKSRLSISKDNSKSQVFLKLNSLQTEDTATYYCAKPNWDYYAMDYWGQGTSVTVSS VL: DIQMTQTTSSLSASLGDRVTISCRASQDISNYLNWYLQKPDGTVKLLIYYTSRLHSGVPSRFSGSGSGTDYSLTISNLEQEDIATYFCQQGITLPCTFGGGTKLEIKR
